{
  "source": "patent US20180016337A1",
  "about": "(HELIX BIOPHARMA, published 2018)",
  "binders": {"B1": {"name": "2A3 camelid single domain antibody (anti-CEACAM6) (VHH)", "VHH": "QVKLEESGGGLVQAGGSLRLSCRTSGRTNSVYTMGWFRQAPGKEREFVAQIMWGAGTNTHYADSVKGRFTISRDSAESTVYLQMNSLKPEDTAVYYCAANRGIPIAGRQYDYWGQGTQVTVSS", "notes": "Llama sdAb isolated from a whole cancer cell immunized library; also called 2A3 antibody; 2A3 anti-CEACAM6 antibody"}},
  "biological_target": "T1, CEACAM6 antigen (carcinoembryonic antigen related cell adhesion molecule 6) (human, UniProt P40199 35-320)",
  "T1 construct": "also called CD66c",
  "T1 sequence": "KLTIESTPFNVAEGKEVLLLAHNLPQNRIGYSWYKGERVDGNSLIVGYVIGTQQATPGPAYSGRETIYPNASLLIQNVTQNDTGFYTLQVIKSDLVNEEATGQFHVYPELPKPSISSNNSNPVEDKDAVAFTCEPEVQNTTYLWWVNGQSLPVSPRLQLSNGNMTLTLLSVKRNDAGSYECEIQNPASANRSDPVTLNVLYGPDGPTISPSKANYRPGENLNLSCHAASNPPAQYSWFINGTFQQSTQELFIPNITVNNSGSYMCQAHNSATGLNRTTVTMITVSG",
  "experiment": "SPR, format not stated",
  "data": [
    {"binder": "B1", "values": [
      {"measurement": "Kd", "value": 5, "unit": "nM"}
    ]}
  ]
}
